Where two headings read alike, the source gives them in different places.
How the values were obtained:
Assay in all cases: cell-based or functional assay
CD19 on Raji B cells [1] = molecular target: T1, CD19 on Raji B cells (human, UniProt P15391 20-556)
T1 sequence (looked up): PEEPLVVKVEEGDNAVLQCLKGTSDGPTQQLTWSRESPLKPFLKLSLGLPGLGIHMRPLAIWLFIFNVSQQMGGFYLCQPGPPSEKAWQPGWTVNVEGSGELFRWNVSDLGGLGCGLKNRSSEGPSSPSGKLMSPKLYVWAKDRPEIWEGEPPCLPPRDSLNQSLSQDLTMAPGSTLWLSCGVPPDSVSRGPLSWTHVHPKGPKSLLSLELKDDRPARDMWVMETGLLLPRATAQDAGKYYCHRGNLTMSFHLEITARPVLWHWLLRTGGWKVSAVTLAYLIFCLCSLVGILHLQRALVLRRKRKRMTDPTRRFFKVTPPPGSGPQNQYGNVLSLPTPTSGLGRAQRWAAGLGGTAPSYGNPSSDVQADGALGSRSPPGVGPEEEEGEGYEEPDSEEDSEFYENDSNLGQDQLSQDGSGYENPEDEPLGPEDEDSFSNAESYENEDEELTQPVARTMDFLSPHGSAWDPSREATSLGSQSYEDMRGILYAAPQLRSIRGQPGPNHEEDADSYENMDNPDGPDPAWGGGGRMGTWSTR

CD20 on Raji B cells [2] = molecular target: T2, CD20 on Raji B cells (human, UniProt P11836 1-297)
T2 sequence (looked up): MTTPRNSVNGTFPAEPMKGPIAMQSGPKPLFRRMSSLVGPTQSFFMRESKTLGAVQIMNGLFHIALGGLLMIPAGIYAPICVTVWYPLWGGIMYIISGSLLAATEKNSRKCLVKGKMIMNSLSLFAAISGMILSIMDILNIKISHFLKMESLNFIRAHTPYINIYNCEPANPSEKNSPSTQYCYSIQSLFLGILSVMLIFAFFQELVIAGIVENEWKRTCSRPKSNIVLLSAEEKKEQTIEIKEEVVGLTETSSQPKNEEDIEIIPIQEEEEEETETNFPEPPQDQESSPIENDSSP

CD19 on Raji B cells [3] = molecular target: T1, CD19 on Raji B cells; remark: listed apart in the source
CD20 on Raji B cells [4] = molecular target: T2, CD20 on Raji B cells; remark: listed apart in the source

B1: v5851 (bispecific antibody)
chain: not shown
heavy: not shown
light: DIVMTQSPATLSLSPGERATLSCRSSKSLQNVNGNTYLYWFQQKPGQSPQLLIYRMSNLNSGVPDRFSGSGSGTEFTLTISSLEPEDFAVYYCMQHLEYPITFGAGTKLEIKRTVAAPSVFIFPPSDEQLKSGTASVVCLLNNFYPREAKVQWKVDNALQSGNSQESVTEQDSKDSTYSLSSTLTLSKADYEKHKVYACEVTHQGLSSPVTKSFNRGEC
For B1, the “% Bridging Jurkat/Raji (whole cell FACS T:B bridging; CD3 on Jurkat bridged to the B cell antigen on Raji)” value (“% Bridging Jurkat/Raji” below) (CD19 on Raji B cells [1]) was 23.2%.

B2: v1821 (bispecific antibody, human IgG1, kappa)
heavy 1: QVQLVQSGGGVVQPGRSLRLSCKASGYTFTSYTMHWVRQAPGKGLEWIGYINPSSGYTKYNQKFKDRFTISADKSKSTAFLQMDSLRPEDTGVYFCARWQDYDVYFDYWGQGTPVTVSSASTKGPSVFPLAPSSKSTSGGTAALGCLVKDYFPEPVTVSWNSGALTSGVHTFPAVLQSSGLYSLSSVVTVPSSSLGTQTYICNVNHKPSNTKVDKKVEPKSCDKTHTCPPCPAPELLGGPSVFLFPPKPKDTLMISRTPEVTCVVVDVSHEDPEVKFNWYVDGVEVHNAKTKPREEQYNSTYRVVSVLTVLHQDWLNGKEYKCKVSNKALPAPIEKTISKAKGQPREPQVYVYPPSRDELTKNQVSLTCLVKGFYPSDIAVEWESNGQPENNYKTTPPVLDSDGSFALVSKLTVDKSRWQQGNVFSCSVMHEALHNHYTQKSLSLSPGK
heavy 2: not shown
light: QIVLSQSPAILSASPGEKVTMTCRASSSVSYIHWFQQKPGSSPKPWIYATSNLASGVPVRFSGSGSGTSYSLTISRVEAEDAATYYCQQWTSNPPTFGGGTKLEIKRTVAAPSVFIFPPSDEQLKSGTASVVCLLNNFYPREAKVQWKVDNALQSGNSQESVTEQDSKDSTYSLSSTLTLSKADYEKHKVYACEVTHQGLSSPVTKSFNRGEC
For B2, the “% Bridging Jurkat/Raji” value (CD20 on Raji B cells [2]) was 7.3%.

B3: v5852 (bispecific antibody, human IgG1, kappa, L234A L235A)
heavy: QVQLVQSGGGVVQPGRSLRLSCKASGYTFTRYTMHWVRQAPGKGLEWIGYINPSRGYTNYNQKVKDRFTISRDNSKNTAFLQMDSLRPEDTGVYFCARYYDDHYCLDYWGQGTPVTVSSASTKGPSVFPLAPSSKSTSGGTAALGCLVKDYFPEPVTVSWNSGALTSGVHTFPAVLQSSGLYSLSSVVTVPSSSLGTQTYICNVNHKPSNTKVDKKVEPKSCDKTHTCPPCPAPELLGGPSVFLFPPKPKDTLMISRTPEVTCVVVDVSHEDPEVKFNWYVDGVEVHNAKTKPREEQYNSTYRVVSVLTVLHQDWLNGKEYKCKVSNKALPAPIEKTISKAKGQPREPQVYVYPPSRDELTKNQVSLTCLVKGFYPSDIAVEWESNGQPENNYKTTPPVLDSDGSFALVSKLTVDKSRWQQGNVFSCSVMHEALHNHYTQKSLSLSPGK
chain: EVQLVESGGGLVKPGGSLKLSCAASGYTFTSYVMHWVRQAPGKGLEWIGYINPYNDGTKYNEKFQGRVTISSDKSISTAYMELSSLRSEDTAMYYCARGTYYYGTRVFDYWGQGTLVTVSSGGGGSGGGGSGGGGSDIVMTQSPATLSLSPGERATLSCRSSKSLQNVNGNTYLYWFQQKPGQSPQLLIYRMSNLNSGVPDRFSGSGSGTEFTLTISSLEPEDFAVYYCMQHLEYPITFGAGTKLEIKAAEPKSSDKTHTCPPCPAPEAAGGPSVFLFPPKPKDTLMISRTPEVTCVVVSVSHEDPEVKFNWYVDGVEVHNAKTKPREEQYNSTYRVVSVLTVLHQDWLNGKEYKCKVSNKALPAPIEKTISKAKGQPREPQVYVLPPSRDELTKNQVSLLCLVKGFYPSDIAVEWESNGQPENNYLTWPPVLDSDGSFFLYSKLTVDKSRWQQGNVFSCSVMHEALHNHYTQKSLSLSPGK
light: DIQMTQSPSSLSASVGDRVTITCSASSSVSYMNWYQQTPGKAPKRWIYDTSKLASGVPSRFSGSGSGTDYTFTISSLQPEDIATYYCQQWSSNPFTFGQGTKLQITRTVAAPSVFIFPPSDEQLKSGTASVVCLLNNFYPREAKVQWKVDNALQSGNSQESVTEQDSKDSTYSLSSTLTLSKADYEKHKVYACEVTHQGLSSPVTKSFNRGEC
B3 was tested, and the “% Bridging Jurkat/Raji” value (CD19 on Raji B cells [3]) was 30.4%.

B4: v6325 (bispecific antibody, human IgG1, kappa)
heavy: B3 heavy
chain: not shown
light: B3 light
B4 was tested, and the “% Bridging Jurkat/Raji” value (CD20 on Raji B cells [4]) was 15.7%.

Source: patent publication US20160355588A1 (Zymeworks, published 2016)
